Measurements taken from paper PMC5491184.

Tests used:
[1] = molecular target: NHERF3 (endogenous, Caco-2/bbe) (UniProt Q5T2W1); test: HA-NHE3 IP, LC-MS/MS spectral counts; details: reference: NHE3 wild type; sites S719
ezrin = ezrin (UniProt P15311); test: HA-NHE3 IP, LC-MS/MS spectral counts; details: reference: NHE3 wild type; sites S719

## NHE3 (from UniProt P26432) NHE3-S719A
[1]
  other: normalized exclusive spectrum count: weaker; reference 4
ezrin
  other: normalized exclusive spectrum count: weaker; reference 8
